Experimental data taken from patent publication US20160075733A1.

Molecular target: low density lipoprotein receptor (LDLR) expressed on HEK293 cells transfected with LDLR modified mRNA (mRNA SEQ ID NO: 21463) (human) (UniProt P01130)
Test: Flow cytometry (FACS): increasing amounts of BODIPY-LDL on HEK293 cells transfected with LDLR mRNA, 1.0 h at 37 C

Chain of low density lipoprotein receptor (LDLR) expressed on HEK293 cells transfected with LDLR modified mRNA (mRNA SEQ ID NO: 21463) (human) (P01130 22-860): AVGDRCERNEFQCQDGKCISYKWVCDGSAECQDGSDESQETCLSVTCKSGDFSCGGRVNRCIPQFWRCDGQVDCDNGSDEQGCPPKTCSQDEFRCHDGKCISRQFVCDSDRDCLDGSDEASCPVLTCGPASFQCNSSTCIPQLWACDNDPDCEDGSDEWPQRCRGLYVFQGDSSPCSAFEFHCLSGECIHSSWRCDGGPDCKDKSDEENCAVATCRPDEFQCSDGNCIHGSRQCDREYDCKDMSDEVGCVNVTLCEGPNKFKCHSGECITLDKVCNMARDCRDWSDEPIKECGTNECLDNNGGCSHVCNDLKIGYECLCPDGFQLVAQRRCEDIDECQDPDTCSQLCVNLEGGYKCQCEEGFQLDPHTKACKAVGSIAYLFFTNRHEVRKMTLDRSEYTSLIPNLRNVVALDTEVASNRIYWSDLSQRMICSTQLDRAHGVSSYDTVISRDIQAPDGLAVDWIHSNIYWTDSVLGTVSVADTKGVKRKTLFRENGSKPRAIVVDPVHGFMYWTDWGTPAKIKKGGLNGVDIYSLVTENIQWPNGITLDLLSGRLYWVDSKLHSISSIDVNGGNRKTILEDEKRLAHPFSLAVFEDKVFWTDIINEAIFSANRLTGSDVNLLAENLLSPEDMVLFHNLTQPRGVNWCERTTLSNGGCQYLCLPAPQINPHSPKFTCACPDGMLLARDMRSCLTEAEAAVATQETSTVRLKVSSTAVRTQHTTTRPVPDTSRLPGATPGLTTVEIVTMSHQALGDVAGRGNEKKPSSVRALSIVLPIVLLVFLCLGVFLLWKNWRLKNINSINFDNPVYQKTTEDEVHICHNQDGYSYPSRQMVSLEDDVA

- Kd: 0.06 µg/mL
Substance: BODIPY-labeled LDL (low density lipoprotein) (from UniProt P04114 28-4563) (ligand)
